Data as given in the supplement of paper PMC12667976.
± gives the standard error.

B1: library; numbered along this chain (parent)
chain: MATDAALRRLLRLHRTEIAVAVDSAFPLLHALADHDVVPEDKFQETLHLKEKEGCPQAFHALLSWLLTQDSTAILDFWRVLFKDYNLERYGRLQPILDSFPKDVDLSQPRKGRKPPAVPKALVPPPRLPTKRKASEEARAAAPAALTPRGTASPGSQLKAKPPKKPESSAEQQRLPLGNGIQTMSASVQRAVAMSSGDVPGARGAVEGILIQQVFESGGSKKCIQVGGEFYTPSKFEDSGSGKNKARSSSGPKPLVRAKGAQGAAPGGGEARLGQQGSVPAPLALPSDPQLHQKNEDECAVCRDGGELICCDGCPRAFHLACLSPPLREIPSGTWRCSSCLQATVQEVQPRAEEPRPQEPPVETPLPPGLRSAGEEVRGPPGEPLAGMDTTLVYKHLPAPPSAAPLPGLDSSALHPLLCVGPEGQQNLAPGARCGVCGDGTDVLRCTHCAAAFHWRCHFPAGTSRPGTGLRCRSCSGDVTPAPVEGVLAPSPARLAPGPAKDDTASHEPALHRDDLESLLSEHTFDGILQWAIQSMARPAAPFPS

Variants of: B1
Test: AIRE transcriptional activation functional score (insulin promoter-GFP; nonsense median 0, synonymous median 1) (normalised score); higher = higher AIRE activity (more reporter activation)
Details: with insulin promoter-GFP reporter in HEK293
Procedure, shortened: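 Flp-In T-REx HEK293 landing-pad cells carrying an insulin core promoter-GFP reporter received codon-optimized AIRE NNN-codon libraries (three regions) through Bxb1 recombinase. Sorting of mCherry+, BFP− integrants took place at day 7, followed by 7 days of expansion and tile-sequencing of top 10% GFP and unselected integrant populations. A functional score was derived from select versus non-select variant enrichment with wild type subtracted. Values from variants reaching 10 counts per million in non-select were set to nonsense median 0 and synonymous median 1 and averaged over biological replicates.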

| Variant | AIRE transcriptional activation functional score |
| --- | --- |
| A31P | -0.0989 ± 0.14 |
| A31Y | 1.22 ± 0.37 |
| P361C | 1.27 ± 0.11 |
| F77D | -0.0172 ± 0.53 |
| F77H | 0.528 ± 0.61 |
| S278H | 1.22 ± 0.16 |
| G477W | 0.745 ± 0.15 |
| G477P | 1.46 ± 0.14 |
| G477K | 1.11 ± 0.11 |
| G477M | 1.01 ± 0.059 |
| S135N | 0.753 ± 0.095 |
| S135M | -0.155 ± 0.32 |
| E307P | 0.172 ± 0.45 |
| H14Y | 0.888 ± 0.31 |
| L210Q | 0.0497 ± 0.33 |
| A482L | 1.44 ± 0.068 |
| F215P | 0.715 ± 0.15 |
| L87Q | 0.462 ± 0.19 |
| T46I | 0.403 ± 0.67 |
| T390V | 1.25 ± 0.15 |
| H396N | 1.09 ± 0.083 |
| H396D | 0.156 ± 0.53 |
| S324K | 0.415 ± 0.31 |
| Q225V | -0.115 ± 0.27 |

| Variant | AIRE transcriptional activation functional score |
| --- | --- |
| Q225A | 0.99 ± 0.27 |
| Q225M | -0.00432 ± 0.073 |
| Q225D | 0.269 ± 0.14 |
| K102P | -1.25 ± 0.1 |
| K102W | 1.77 ± 0.18 |
| L385H | 1.13 ± 0.079 |
| S64C | -0.513 ± 0.2 |
| S64Q | -0.939 ± 0.095 |
| A170K | 1.97 ± 0.053 |
| D36W | 0.641 ± 0.048 |
| D36C | -0.525 ± 0.023 |
| I74W | 0.39 ± 0.23 |
| S217V | 0.98 ± 0.26 |
| G305V | 1.07 ± 0.25 |
| R9I | 0.0495 ± 0.27 |
| R9S | 1.39 ± 0.75 |
| E171A | 1.77 ± 0.5 |
| E171I | 1.63 ± 0.24 |
| G369T | 0.912 ± 0.61 |
| L320R | 1.16 ± 0.2 |
| L320C | 0.84 ± 0.18 |
| G274F | 0.89 ± 0.068 |
| Q290I | 0.465 ± 0.35 |
| A489Y | 1.22 ± 0.2 |

| Variant | AIRE transcriptional activation functional score |
| --- | --- |
| H512V | 1.35 ± 0.069 |
| H512I | 1.1 ± 0.11 |
| L11K | 0.379 ± 0.093 |
| A140E | 1.36 ± 0.42 |
| G263K | 1.27 ± 0.067 |
| P315N | 1.1 ± 0.036 |
| P315T | 0.854 ± 0.19 |
| A6R | 0.648 ± 0.17 |
| D41P | 0.148 ± 0.081 |
| V301T | 0.963 ± 0.24 |
| V301K | 1.09 ± 0.31 |
| A343T | 1.13 ± 0.28 |
| V345E | 0.982 ± 0.059 |
| S332I | 0.887 ± 0.28 |
| P400I | 0.76 ± 0.28 |
| R336H | 0.786 ± 0.042 |
| H30M | 0.839 ± 0.14 |
| P266V | 0.93 ± 0.34 |
| Y231V | 0.771 ± 0.16 |
| A202M | 1.19 ± 0.086 |
| A202R | 1.08 ± 0.33 |
| S338Q | 0.916 ± 0.089 |
| S338F | 0.948 ± 0.13 |
| V199L | 0.982 ± 0.37 |

| Variant | AIRE transcriptional activation functional score |
| --- | --- |
| V199K | 0.754 ± 0.12 |
| Q213F | -0.348 ± 0.053 |
| R190F | -0.277 ± 0.2 |
| C310E | 1.29 ± 0.17 |
| C310I | 0.643 ± 0.19 |
| C310P | 0.625 ± 0.32 |
| W65R | -0.313 ± 0.32 |
| W65N | 0.316 ± 0.17 |
| P483N | 0.937 ± 0.11 |
| P483F | 1.33 ± 0.075 |
| P483R | 1.03 ± 0.24 |
| P401R | 1.15 ± 0.12 |
| R465T | -0.654 ± 0.16 |
| R465P | 0.829 ± 0.13 |
| S24M | 1.04 ± 0.34 |
| L93V | 0.0157 ± 0.17 |
| V20N | -0.0183 ± 0.18 |
| Y90V | 0.153 ± 0.61 |
| E45F | 0.576 ± 0.049 |
| A138C | 1.51 ± 0.25 |
| R174Y | 1.09 ± 0.19 |
| R174T | 0.614 ± 0.36 |
| I528K | -0.0103 ± 0.19 |
| Q108T | 1.35 ± 0.6 |

| Variant | AIRE transcriptional activation functional score |
| --- | --- |
| P497L | 1.34 ± 0.23 |
| Q182E | 1.46 ± 0.24 |
| Q275A | 0.853 ± 0.14 |
| Q275M | 1.04 ± 0.033 |
| L63C | -0.0612 ± 0.18 |
| L63W | 0.381 ± 0.093 |
| L516Q | 0.292 ± 0.12 |
| L516S | 0.564 ± 0.12 |
| L516V | 0.832 ± 0.27 |
| D288C | 1.26 ± 0.1 |
| D288P | 1.15 ± 0.18 |
| P286G | 1.05 ± 0.13 |
| P154F | 1.89 ± 0.11 |
| P115E | 0.792 ± 0.58 |
| E375H | 1.6 ± 0.037 |
| P398W | 1.64 ± 0.049 |
| P398A | 1.09 ± 0.16 |
| P101G | 0.302 ± 0.13 |
| R110W | 1.5 ± 0.21 |
| R351C | 1.19 ± 0.2 |
| S195Q | 0.659 ± 0.17 |
| M536L | 1.04 ± 0.11 |
| E522Q | 1.03 ± 0.37 |
| L370E | -0.238 ± 0.062 |

| Variant | AIRE transcriptional activation functional score |
| --- | --- |
| Q349C | 1.1 ± 0.063 |
| Q349S | 1.26 ± 0.17 |
| C337W | 0.733 ± 0.042 |
| R8Y | -0.316 ± 0.91 |
| R8E | -0.344 ± 0.079 |
| S248R | 0.215 ± 0.44 |
| P129F | 0.395 ± 0.1 |
| L414D | 1.03 ± 0.042 |
| A5W | 0.849 ± 0.1 |
| A134F | 1.29 ± 0.44 |
| G421R | 0.926 ± 0.27 |
| S521Q | 0.377 ± 0.17 |
| A160V | 1.38 ± 0.53 |
| A117W | 1.4 ± 0.096 |
| G150L | 1.3 ± 0.56 |
| W335R | 1.29 ± 0.29 |
| W335Q | 1.19 ± 0.092 |
| C314F | 0.96 ± 0.07 |
| K111H | 0.607 ± 0.25 |
| Q173I | 1.45 ± 0.48 |
| Q173Y | 1.93 ± 0.35 |
| Q173S | 1.34 ± 0.43 |
| K83R | 0.00955 ± 0.44 |
| R247E | 1.52 ± 0.14 |

| Variant | AIRE transcriptional activation functional score |
| --- | --- |
| A271P | 1.02 ± 0.28 |
| A271I | 1.1 ± 0.18 |
| E40A | -0.436 ± 0.32 |
| E40F | -0.259 ± 0.34 |
| I211V | 1.15 ± 0.18 |
| K42N | 0.98 ± 0.81 |
| R272W | 0.893 ± 0.044 |
| G424Q | 1.49 ± 0.33 |
| C55G | -0.175 ± 0.35 |
| C55N | -0.172 ± 0.48 |
| A19Q | -1.03 ± 0.17 |
| P405F | 1.03 ± 0.048 |
| T16H | -0.704 ± 0.84 |
| I209E | 0.5 ± 0.23 |
| G440R | 0.76 ± 0.21 |
| V479S | 0.925 ± 0.28 |
| S196H | 1.01 ± 0.3 |
| S196T | 0.82 ± 0.29 |
| K235R | 1.19 ± 0.28 |
| K235M | 1.33 ± 0.087 |
| N179Y | 1.15 ± 0.086 |
| T232K | 1.16 ± 0.13 |
| T183Y | -0.205 ± 0.25 |
